Experiment in all cases: cell-based or functional assay
For assay [1], the target named is Human TGFβ1 (human) (UniProt P01137).
In assay [2] the target is Human TGFβ3 (human) (UniProt P10600).
The target in assay [3] is Human TGFβ1 (human) (UniProt P01137). This is another data set of the same source.
For assay [4], the target named is Human TGFβ3 (human) (UniProt P10600). This is another data set of the same source.

Read-outs that look alike come from different tables or passages of the source.

Chain of Human TGFβ3 (human) (P10600 301-412 limits assumed): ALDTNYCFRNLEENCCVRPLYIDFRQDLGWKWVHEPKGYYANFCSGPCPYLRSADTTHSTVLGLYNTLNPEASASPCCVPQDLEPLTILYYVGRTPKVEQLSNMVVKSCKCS
Chain of hTβRIIshort(23-159)-hG2Fc (Fc fusion) (chain): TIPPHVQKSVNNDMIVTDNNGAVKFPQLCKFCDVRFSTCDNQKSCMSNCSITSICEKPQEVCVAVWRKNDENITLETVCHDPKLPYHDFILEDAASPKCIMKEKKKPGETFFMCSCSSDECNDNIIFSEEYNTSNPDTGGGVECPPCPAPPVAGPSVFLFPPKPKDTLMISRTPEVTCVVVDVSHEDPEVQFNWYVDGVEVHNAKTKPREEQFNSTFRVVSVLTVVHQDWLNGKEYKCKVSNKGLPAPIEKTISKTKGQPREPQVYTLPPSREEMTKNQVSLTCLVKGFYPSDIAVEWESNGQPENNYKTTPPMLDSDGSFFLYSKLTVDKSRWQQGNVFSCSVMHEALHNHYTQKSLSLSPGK
Chain of Human TGFβ1 (human) (P01137 279-390 limits assumed): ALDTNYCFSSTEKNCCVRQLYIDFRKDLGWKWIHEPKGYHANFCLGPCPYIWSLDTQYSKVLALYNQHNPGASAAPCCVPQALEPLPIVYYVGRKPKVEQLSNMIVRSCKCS
Chain of hTβRIIshort(23-153)-hG2Fc (Fc fusion) (chain): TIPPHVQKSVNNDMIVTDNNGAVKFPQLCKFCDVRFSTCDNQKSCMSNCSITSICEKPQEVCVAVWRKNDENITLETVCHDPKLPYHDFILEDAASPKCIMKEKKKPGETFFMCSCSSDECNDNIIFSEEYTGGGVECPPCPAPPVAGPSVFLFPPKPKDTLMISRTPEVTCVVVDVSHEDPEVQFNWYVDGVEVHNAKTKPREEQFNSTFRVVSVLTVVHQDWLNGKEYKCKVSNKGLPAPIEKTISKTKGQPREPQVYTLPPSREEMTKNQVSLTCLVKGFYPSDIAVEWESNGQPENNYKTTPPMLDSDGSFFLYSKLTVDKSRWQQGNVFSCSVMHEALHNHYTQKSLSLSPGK
Chain of hTβRIIshort(29-159)-hG2Fc (Fc fusion) (chain): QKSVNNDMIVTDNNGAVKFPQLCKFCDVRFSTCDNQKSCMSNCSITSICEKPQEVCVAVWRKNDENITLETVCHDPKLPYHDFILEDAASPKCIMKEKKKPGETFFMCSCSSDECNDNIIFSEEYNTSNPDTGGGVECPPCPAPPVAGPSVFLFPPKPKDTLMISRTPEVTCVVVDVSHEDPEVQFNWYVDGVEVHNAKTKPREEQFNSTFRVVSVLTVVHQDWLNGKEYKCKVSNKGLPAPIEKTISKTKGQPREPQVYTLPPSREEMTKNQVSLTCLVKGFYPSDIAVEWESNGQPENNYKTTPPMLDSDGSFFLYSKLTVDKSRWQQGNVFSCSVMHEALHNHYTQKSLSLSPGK
Chain of hTβRIIshort(35-159)-hG2Fc (Fc fusion) (chain): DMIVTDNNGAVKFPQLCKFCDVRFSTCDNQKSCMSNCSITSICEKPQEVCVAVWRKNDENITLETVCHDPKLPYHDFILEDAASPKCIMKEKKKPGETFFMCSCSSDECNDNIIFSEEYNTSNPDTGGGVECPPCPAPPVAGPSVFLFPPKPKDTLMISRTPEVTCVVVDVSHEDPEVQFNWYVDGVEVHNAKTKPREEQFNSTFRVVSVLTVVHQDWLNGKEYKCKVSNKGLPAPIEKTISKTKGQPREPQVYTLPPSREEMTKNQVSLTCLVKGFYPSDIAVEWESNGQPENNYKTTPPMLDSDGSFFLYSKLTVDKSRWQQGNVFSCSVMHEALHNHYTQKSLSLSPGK

In assay [1], hTβRIIshort(23-153)-hG2Fc (Fc fusion) showed an IC50 (nM), A549 CAGA12 reporter gene assay, hTGFβ1 (640 pg/ml) of 2.62 nM. Further, the IC50 (nM), A549 CAGA12 reporter gene assay, hTGFβ3 (270 pg/ml) in assay [2] amounted to 0.14 nM.

With “hTβRIIshort(23-153/N70D)-hG2Fc (Fc fusion)”, the IC50 (nM), A549 CAGA12 reporter gene assay, hTGFβ1 (640 pg/ml) in assay [1] amounted to 17.7 nM.

For hTβRIIshort(23-159)-hG2Fc (Fc fusion), the IC50 (nM), A549 CAGA12 reporter gene assay, hTGFβ1 (640 pg/ml) came to 1.73 nM in assay [1] and 0.52 nM in assay [3]. The figures for the IC50 (nM), A549 CAGA12 reporter gene assay, hTGFβ3 (270 pg/ml) in assay [2] and in assay [4] were 0.14 nM and 0.37 nM, respectively.

Regarding “hTβRIIshort(23-159/D110K)-hG2Fc (Fc fusion)”, the IC50 (nM), A549 CAGA12 reporter gene assay, hTGFβ1 (640 pg/ml) in assay [1] was > 73.6 nM.

Substance hTβRIIshort(29-159)-hG2Fc (Fc fusion) returned an IC50 (nM), A549 CAGA12 reporter gene assay, hTGFβ1 (640 pg/ml) in assay [3] of 2.05 nM. Also, the IC50 (nM), A549 CAGA12 reporter gene assay, hTGFβ3 (270 pg/ml) in assay [4] was > 7.5 nM.

In turn, hTβRIIshort(35-159)-hG2Fc (Fc fusion) showed an IC50 (nM), A549 CAGA12 reporter gene assay, hTGFβ1 (640 pg/ml) in assay [3] of 2.51 nM. Besides, the IC50 (nM), A549 CAGA12 reporter gene assay, hTGFβ3 (270 pg/ml) in assay [4] was > 7.5 nM.

These data come from patent publication US20180222956A1.
